Data from article PMC9751785, “Characterization and Identification of a novel chromosome-encoded metallo-β-lactamase WUS-1 in Myroides albus P34” (Frontiers in Microbiology, 2022).

Assays:
WUS-1 = biological target: T1, WUS-1 (Myroides albus, UniProt A0A6I3LH21, K23R); experiment: spectrophotometric imipenem hydrolysis, inhibition; assay type: biochemical
T1 construct: gene bla; mature domain, signal peptide removed (predicted cleavage between 19 and 20, Ala/Gln); pCold I in E. coli BL21, His-tag cut with thrombin; zinc enzyme

[1] = test system: CC1(C)S[C@@H]2[C@H](NC(=O)C(C(=O)O)c3ccccc3)C(=O)N2[C@H]1C(=O)O; experiment: continuous spectrophotometric hydrolysis assay, Michaelis-Menten fit; assay type: biochemical, Myroides albus; settings: 10 mM phosphate pH 7.4, 50 μM ZnCl2, 30 °C, SD within 15%
Excerpt: (§1) continuous spectrophotometric hydrolysis assay, Michaelis-Menten fit on WUS-1

[2] = test system: CC1(C)S[C@@H]2[C@H](NC(=O)[C@H](C(=O)O)c3ccsc3)C(=O)N2[C@H]1C(=O)O; experiment: as above; assay type: biochemical, Myroides albus; settings: 10 mM phosphate pH 7.4, 50 μM ZnCl2, 30 °C, SD within 15%
Excerpt: as §1

[3] = test system: CC1(C)S[C@@H]2[C@H](NC(=O)[C@H](N)c3ccccc3)C(=O)N2[C@H]1C(=O)O; experiment: as above; assay type: biochemical, Myroides albus; settings: 10 mM phosphate pH 7.4, 50 μM ZnCl2, 30 °C, SD within 15%
Excerpt: as §1

[4] = test system: CO[C@@]1(NC(=O)Cc2cccs2)C(=O)N2C(C(=O)O)=C(COC(N)=O)CS[C@@H]21; experiment: as above; assay type: biochemical, Myroides albus; settings: 10 mM phosphate pH 7.4, 50 μM ZnCl2, 30 °C, SD within 15%
Excerpt: as §1

[5] = test system: C[C@@H](O)[C@H]1C(=O)N2C(C(=O)O)=C(SCCN=CN)C[C@H]12; experiment: as above; assay type: biochemical, Myroides albus; settings: 10 mM phosphate pH 7.4, 50 μM ZnCl2, 30 °C, SD within 15%
Excerpt: as §1

[6] = test system: C[C@@H](O)[C@H]1C(=O)N2C(C(=O)O)=C(S[C@@H]3CN[C@H](C(=O)N(C)C)C3)[C@H](C)[C@H]12; experiment: as above; assay type: biochemical, Myroides albus; settings: 10 mM phosphate pH 7.4, 50 μM ZnCl2, 30 °C, SD within 15%
Excerpt: as §1

[7] = test system: Cc1nnc(SCC2=C(C(=O)O)N3C(=O)[C@@H](NC(=O)Cn4cnnn4)[C@H]3SC2)s1; experiment: as above; assay type: biochemical, Myroides albus; settings: 10 mM phosphate pH 7.4, 50 μM ZnCl2, 30 °C, SD within 15%
Excerpt: as §1

T1 sequence (A0A6I3LH21 entry or part of it K23R): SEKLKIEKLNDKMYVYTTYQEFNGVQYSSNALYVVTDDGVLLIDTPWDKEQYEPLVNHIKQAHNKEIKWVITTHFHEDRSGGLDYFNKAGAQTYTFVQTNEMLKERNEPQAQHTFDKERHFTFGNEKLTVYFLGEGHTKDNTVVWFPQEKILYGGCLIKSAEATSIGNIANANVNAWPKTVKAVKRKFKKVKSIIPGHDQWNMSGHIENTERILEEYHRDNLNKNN

Compound: O=C(O)CN(CCN(CC(=O)O)CC(=O)O)CC(=O)O [EDTA]
- IC50 (WUS-1): 71.3 µM

Compound: WUS-1 (Myroides albus; K23R)
- Km [1]: 581 µM
- kcat [1]: 1120 s⁻¹
- kcat/Km [1]: 1.93e+06 M⁻¹ s⁻¹
- Km [2]: 827.4 µM
- kcat [2]: 703 s⁻¹
- kcat/Km [2]: 850000 M⁻¹ s⁻¹
- Km [3]: 290.2 µM
- kcat [3]: 2920 s⁻¹
- kcat/Km [3]: 1.01e+07 M⁻¹ s⁻¹
- Km [4]: 44.33 µM
- kcat [4]: 14.2 s⁻¹
- kcat/Km [4]: 320000 M⁻¹ s⁻¹
- Km [5]: 334.8 µM
- kcat [5]: 1340 s⁻¹
- kcat/Km [5]: 3.99e+06 M⁻¹ s⁻¹
- Km [6]: 147.4 µM
- kcat [6]: 477 s⁻¹
- kcat/Km [6]: 3.24e+06 M⁻¹ s⁻¹
- Km [7]: 59.86 µM
- kcat [7]: 33.9 s⁻¹
- kcat/Km [7]: 570000 M⁻¹ s⁻¹
